In patent US20110165660A1, “ENGINEERED MICROORGANISMS WITH ENHANCED FERMENTATION ACTIVITY” (VERDEZYNE, INC., priority 2009, published 2011):

B1: Escherichia coli: xylose isomerase of this donor organism expressed in S. cerevisiae (protein, UniProt P00944 1-440, looked up)
Xylose isomerase: MQAYFDQLDRVRYEGSKSSNPLAFRHYNPDELVLGKRMEEHLRFAACYWHTFCWNGADMFGVGAFNRPWQQPGEALALAKRKADVAFEFFHKLHVPFYCFHDVDVSPEGASLKEYINNFAQMVDVLAGKQEESGVKLLWGTANCFTNPRYGAGAATNPDPEVFSWAATQVVTAMEATHKLGGENYVLWGGREGYETLLNTDLRQEREQLGRFMQMVVEHKHKIGFQGTLLIEPKPQEPTKHQYDYDAATVYGFLKQFGLEKEIKLNIEANHATLAGHSFHHEIATAIALGLFGSVDANRGDAQLGWDTDQFPNSVEENALVMYEILKAGGFTTGGLNFDAKVRRQSTDKYDLFYGHIGAMDTMALALKIAARMIEDGELDKRIAQRYSGWNSELGQQILKGQMSLADLAKYAQEHHLSPVHQSGRQEQLENLVNHYLFDK
B2: Bacillus licheniformis: xylose isomerase of this donor organism expressed in S. cerevisiae (protein, UniProt P77832 1-448, looked up)
Xylose isomerase: MFFRNIGMIEYEGADSENPYAFKYYNPDEFVGGKTMKEHLRFAVAYWHTFDADGKDPFGDGTMFRAWNRLTHPLDKAKARAEAAFEFFEKLGVPYFCFHDVDIVDEGATLRETFTYLDQMSSFLKEMMETSHVQLLWNTANMFTHPRYVHGAATSCNADVYAYAAAKVKKGLDIAKELGAENYVFWGGREGYETLLNTDMKLELENLSSFYRMAVEYAREIGFDGQFLIEPKPKEPTKHQYDFDAATTIAFLETYGLKDHFKLNLEANHATLAGHTFEHELRVAALHDMLGSIDANQGDLLLGWDTDEFPTDLYSAVLAMYEILKAGGFKTGGINFDAKVRRPSFADEDLFHAHIAGMDTYAVGLKVASRLLEDKALDQVIEERYESYTKGIGLEIKEGRTDLKKLAAYALENDHIENQSGRQERLKATVNRYLLNALREAPAGKETH
B3: Bacillus subtilis: xylose isomerase of this donor organism expressed in S. cerevisiae (protein, UniProt P0CI80 1-445, looked up)
Xylose isomerase: MAQSHSSSINYFGSANKVVYEGKDSTNPLAFKYYNPQEVIGGKTLKEHLRFSIAYWHTFTADGTDVFGAATMQRPWDHYKGMDLAKMRVEAAFEMFEKLDAPFFAFHDRDIAPEGSTLKETNQNLDMIMGMIKDYMRNSGVKLLWNTANMFTNPRFVHGAATSCNADVFAYAAAQVKKGLETAKELGAENYVFWGGREGYETLLNTDLKFELDNLARFMHMAVDYAKEIGYTGQFLIEPKPKEPTTHQYDTDAATTIAFLKQYGLDNHFKLNLEANHATLAGHTFEHELRMARVHGLLGSVDANQGHPLLGWDTDEFPTDLYSTTLAMYEILQNGGLGSGGLNFDAKVRRSSFEPDDLIYAHIAGMDAFARGLKVAHKLIEDRVFEDVIQHRYRSFTEGIGLEIIEGRANFHTLEQYALNHKSIKNESGRQEKLKAILNQYILEV
modifications: expressed in S. cerevisiae
B4: Staphylococcus xylosus: xylose isomerase of this donor organism expressed in S. cerevisiae (protein, UniProt P27157 1-439, looked up)
Xylose isomerase: MSYFDINKVNYEGPKSNNAFSFKYYNPEEKLGNHSMSELLRFSVAYWHTFTADLSDPFGVGVAERDWDSLDEMEKAKARVEAIFEFMEKTRIDYFCFHDVDISPEGASLKESNENLDIIVELIKEKMDQTGKKLLWNTTNNFTHERFVHGAATSSNAEVFAYAAAKVKKSLEIAKKLGSENFVFWGGREGYESLLNTNMKLELDNLATFFKMAKSYADEIGYTGQFLIEPKPKEPTTHQYDTDVATAHAFLQKYDLDKDFKFNIEANHATLAGHTFQHELRYARDNNMLGSVDANQGHPLLGWDTDESTDVYDTTLAMYEILKNGGLAPGGLNFDAKPRRTSFKQEDLILTHIAGMDTFALGLRVAYKMIEDNFFENIMDEKYKSFNEGIGKKIVEGETSLKELEDYAFNINTINNTSDHLEVIKSQINQYILNINNKD
B5: Burkholderia xenovorans: xylose isomerase of this donor organism expressed in S. cerevisiae (protein, UniProt Q13RB8 1-440, looked up)
Xylose isomerase: MSYFEHIPEIRYEGPQSDNPLAYRHYDKSKKVLGKTLEEHLRIAVCYWHTFVWPGVDIFGQGTFRRPWQQAGDAMERARQKADSAFEFFSKLGTPYYTFHDTDVSPEGSSLKEYSENFLRITDYLARKQEDTGIKLLWGTANLFSHPRYAAGAATSPDPEVFAFAATQVRHALDATQRLGGDNYVLWGGREGYDTLLNTDLMRERDQLARFLHMVVDHAHKIGFKGSLLIEPKPQEPTKHQYDYDVATVHGFLLQHGLEKEIRVNIEANHATLAGHSFHHEIATAYALGIFGSVDANRGDPQNGWDTDQFPNSVEELTLAFYEILKHGGFTTGGMNFDSKVRRQSVDPEDLFYGHIGAIDNLALAVERAAVLIENDRLDQFKRQRYAGWDADFGRKILSGDYSLSTLATDALARGLNPQHASGHQELMENIVNQAIYSGR
B6: Psudomonas savastanoi: xylose isomerase of this donor organism expressed in S. cerevisiae (protein, UniProt Q48J73 1-438, looked up)
Xylose isomerase: MPYFPAVDKVRYEGPDSDSPLAFRHYDADKLILGKPMREHLRMAACYWHTFVWPGADMFGVGTFKRPWQGSGDPLELAIGKAETAFEFFSKLGIDYYSFHDTDVAPEGSSLKEYRNNFAQMIDQLERHQEQTGIKLLWGTANCFSNPRFAAGAASNPDPEVFAYAATQVFSAMNATQRLKGANYVLWGGREGYETLLNTDLRQEREQLGRFMRMVVEHKHKIGFKGDLLIEPKPQEPTKHQYDYDSATVFGFLQQYGLEKEIKVNIEANHATLAGHSFHHEIATAVSLGIFGSIDANRGDPQNGWDTDQFPNSVEEMTLATYEILKAGGFTNGGYNFDSKVRRQSLDEVDLFHGHVAAMDVLALALERAAAMVQNDKLQQFKDQRYAGWQQPFGKSLLAGEFSLESLAKHAFDKDLNPQAVSGRQELLEGVVNRFIYF
modifications: expressed in S. cerevisiae
B7: Clostridium thermosulfurogenes: xylose isomerase of this donor organism expressed in S. cerevisiae (protein, UniProt P19148 1-439, looked up)
Xylose isomerase: MNKYFENVSKIKYEGPKSNNPYSFKFYNPEEVIDGKTMEEHLRFSIAYWHTFTADGTDQFGKATMQRPWNHYTDPMDIAKARVEAAFEFFDKINAPYFCFHDRDIAPEGDTLRETNKNLDTIVAMIKDYLKTSKTKVLWGTANLFSNPRFVHGASTSCNADVFAYSAAQVKKALEITKELGGENYVFWGGREGYETLLNTDMEFELDNFARFLHMAVDYAKEIGFEGQFLIEPKPKEPTKHQYDFDVANVLAFLRKYDLDKYFKVNIEANHATLAFHDFQHELRYARINGVLGSIDANTGDMLLGWDTDQFPTDIRMTTLAMYEVIKMGGFDKGGLNFDAKVRRASFEPEDLFLGHIAGMDAFAKGFKVAYKLVKDRVFDKFIEERYASYKDGIGADIVSGKADFRSLEKYALERSQIVNKSGRQELLESILNQYLFAE

Tested on: xylose isomerase activity
Assay: Heterologous xylose isomerase expression in engineered yeast (active yes/no)
Conditions: xylose isomerase of the donor organism expressed in engineered yeast (S. cerevisiae)

Molecule | Active? (yes/no)
Actinoplanes missouriensis: xylose isomerase of this donor organism expressed in S. cerevisiae | No
Bacteroides thetaiotaomicron: xylose isomerase of this donor organism expressed in S. cerevisiae | Yes
Streptomyces diastaticus subsp diastaticus: xylose isomerase of this donor organism expressed in S. cerevisiae | No
Streptomyces rubiginosus: xylose isomerase of this donor organism expressed in S. cerevisiae | No
Thermus thermophilus: xylose isomerase (Type 1) of this donor organism expressed in S. cerevisiae | Yes
B1 | No
B2 | No
B3 | No
B4 | No
B5 | No
B6 | No
B7 | No
